Results taken from US12679878B2, “CRF2 receptor agonists and their use in therapy” (SANOFI, priority 2020, dated 2026).
Starred links: 1 amine or outer side, 2 acyl side, 3 side chain; linkers in the order of their positions; H or OH if unused. Non-standard residues stand in square brackets, D forms with d. Groups on a side chain read outwards from the residue. No end group written: not given here. *: point of attachment. C18 diacid = O=C(O)CCCCCCCCCCCCCCCCC(=O)*; γGlu = O=C(O)[C@H](CCC(=O)[*:2])N[*:1]; Palmitoyl = CCCCCCCCCCCCCCCC(=O)*; AEEA = NCCOCCOCC(=O)O; Aib = CC(C)(N)C(=O)O

B1: SEQ ID NO: 30 (peptide)
peptide: IVLSLD[dV]PTKLK([γGlu-Palmitoyl])KKLLKQERKRKEREQAEKAARILERV-NH2
modifications: N-terminus assumed
SMILES: CCCCCCCCCCCCCCCC(=O)N[C@@H](CCC(=O)NCCCC[C@H](NC(=O)[C@H](CC(C)C)NC(=O)[C@H](CCCCN)NC(=O)[C@@H](NC(=O)[C@@H]1CCCN1C(=O)[C@H](NC(=O)[C@H](CC(=O)O)NC(=O)[C@H](CC(C)C)NC(=O)[C@H](CO)NC(=O)[C@H](CC(C)C)NC(=O)[C@@H](NC(=O)[C@@H](N)[C@@H](C)CC)C(C)C)C(C)C)[C@@H](C)O)C(=O)N[C@@H](CCCCN)C(=O)N[C@@H](CCCCN)C(=O)N[C@@H](CC(C)C)C(=O)N[C@@H](CC(C)C)C(=O)N[C@@H](CCCCN)C(=O)N[C@@H](CCC(N)=O)C(=O)N[C@@H](CCC(=O)O)C(=O)N[C@@H](CCCNC(=N)N)C(=O)N[C@@H](CCCCN)C(=O)N[C@@H](CCCNC(=N)N)C(=O)N[C@@H](CCCCN)C(=O)N[C@@H](CCC(=O)O)C(=O)N[C@@H](CCCNC(=N)N)C(=O)N[C@@H](CCC(=O)O)C(=O)N[C@@H](CCC(N)=O)C(=O)N[C@@H](C)C(=O)N[C@@H](CCC(=O)O)C(=O)N[C@@H](CCCCN)C(=O)N[C@@H](C)C(=O)N[C@@H](C)C(=O)N[C@@H](CCCNC(=N)N)C(=O)N[C@H](C(=O)N[C@@H](CC(C)C)C(=O)N[C@@H](CCC(=O)O)C(=O)N[C@@H](CCCNC(=N)N)C(=O)N[C@H](C(N)=O)C(C)C)[C@@H](C)CC)C(=O)O
B2: SEQ ID NO: 35 (peptide)
peptide: IVLSLDVPIKLK([AEEA-AEEA-γGlu-C18 diacid])KILLEQEKQKKQREQAETNKQILAQV-NH2
modifications: N-terminus assumed
SMILES: CC[C@H](C)[C@H](N)C(=O)N[C@H](C(=O)N[C@@H](CC(C)C)C(=O)N[C@@H](CO)C(=O)N[C@@H](CC(C)C)C(=O)N[C@@H](CC(=O)O)C(=O)N[C@H](C(=O)N1CCC[C@H]1C(=O)N[C@H](C(=O)N[C@@H](CCCCN)C(=O)N[C@@H](CC(C)C)C(=O)N[C@@H](CCCCNC(=O)COCCOCCNC(=O)COCCOCCNC(=O)CC[C@H](NC(=O)CCCCCCCCCCCCCCCCC(=O)O)C(=O)O)C(=O)N[C@@H](CCCCN)C(=O)N[C@H](C(=O)N[C@@H](CC(C)C)C(=O)N[C@@H](CC(C)C)C(=O)N[C@@H](CCC(=O)O)C(=O)N[C@@H](CCC(N)=O)C(=O)N[C@@H](CCC(=O)O)C(=O)N[C@@H](CCCCN)C(=O)N[C@@H](CCC(N)=O)C(=O)N[C@@H](CCCCN)C(=O)N[C@@H](CCCCN)C(=O)N[C@@H](CCC(N)=O)C(=O)N[C@@H](CCCNC(=N)N)C(=O)N[C@@H](CCC(=O)O)C(=O)N[C@@H](CCC(N)=O)C(=O)N[C@@H](C)C(=O)N[C@@H](CCC(=O)O)C(=O)N[C@H](C(=O)N[C@@H](CC(N)=O)C(=O)N[C@@H](CCCCN)C(=O)N[C@@H](CCC(N)=O)C(=O)N[C@H](C(=O)N[C@@H](CC(C)C)C(=O)N[C@@H](C)C(=O)N[C@@H](CCC(N)=O)C(=O)N[C@H](C(N)=O)C(C)C)[C@@H](C)CC)[C@@H](C)O)[C@@H](C)CC)[C@@H](C)CC)C(C)C)C(C)C
B3: SEQ ID NO: 34 (peptide)
peptide: FTLSLDVPTKIK([AEEA-AEEA-γGlu-C18 diacid])QKLLKQEKQKKQRQKAKTNKQILEQV-NH2
modifications: N-terminus assumed
SMILES: CC[C@H](C)[C@H](NC(=O)[C@H](CCC(N)=O)NC(=O)[C@H](CCCCN)NC(=O)[C@H](CC(N)=O)NC(=O)[C@@H](NC(=O)[C@H](CCCCN)NC(=O)[C@H](C)NC(=O)[C@H](CCCCN)NC(=O)[C@H](CCC(N)=O)NC(=O)[C@H](CCCNC(=N)N)NC(=O)[C@H](CCC(N)=O)NC(=O)[C@H](CCCCN)NC(=O)[C@H](CCCCN)NC(=O)[C@H](CCC(N)=O)NC(=O)[C@H](CCCCN)NC(=O)[C@H](CCC(=O)O)NC(=O)[C@H](CCC(N)=O)NC(=O)[C@H](CCCCN)NC(=O)[C@H](CC(C)C)NC(=O)[C@H](CC(C)C)NC(=O)[C@H](CCCCN)NC(=O)[C@H](CCC(N)=O)NC(=O)[C@H](CCCCNC(=O)COCCOCCNC(=O)COCCOCCNC(=O)CC[C@H](NC(=O)CCCCCCCCCCCCCCCCC(=O)O)C(=O)O)NC(=O)[C@@H](NC(=O)[C@H](CCCCN)NC(=O)[C@@H](NC(=O)[C@@H]1CCCN1C(=O)[C@@H](NC(=O)[C@H](CC(=O)O)NC(=O)[C@H](CC(C)C)NC(=O)[C@H](CO)NC(=O)[C@H](CC(C)C)NC(=O)[C@@H](NC(=O)[C@@H](N)Cc1ccccc1)[C@@H](C)O)C(C)C)[C@@H](C)O)[C@@H](C)CC)[C@@H](C)O)C(=O)N[C@@H](CC(C)C)C(=O)N[C@@H](CCC(=O)O)C(=O)N[C@@H](CCC(N)=O)C(=O)N[C@H](C(N)=O)C(C)C
B4: SEQ ID NO: 31 (peptide)
peptide: IVLSLD[dV]PTKLK([γGlu-Palmitoyl])QKLLKQERQRKEREQAEKN[Aib]RILERV-NH2
modifications: N-terminus assumed
SMILES: CCCCCCCCCCCCCCCC(=O)N[C@@H](CCC(=O)NCCCC[C@H](NC(=O)[C@H](CC(C)C)NC(=O)[C@H](CCCCN)NC(=O)[C@@H](NC(=O)[C@@H]1CCCN1C(=O)[C@H](NC(=O)[C@H](CC(=O)O)NC(=O)[C@H](CC(C)C)NC(=O)[C@H](CO)NC(=O)[C@H](CC(C)C)NC(=O)[C@@H](NC(=O)[C@@H](N)[C@@H](C)CC)C(C)C)C(C)C)[C@@H](C)O)C(=O)N[C@@H](CCC(N)=O)C(=O)N[C@@H](CCCCN)C(=O)N[C@@H](CC(C)C)C(=O)N[C@@H](CC(C)C)C(=O)N[C@@H](CCCCN)C(=O)N[C@@H](CCC(N)=O)C(=O)N[C@@H](CCC(=O)O)C(=O)N[C@@H](CCCNC(=N)N)C(=O)N[C@@H](CCC(N)=O)C(=O)N[C@@H](CCCNC(=N)N)C(=O)N[C@@H](CCCCN)C(=O)N[C@@H](CCC(=O)O)C(=O)N[C@@H](CCCNC(=N)N)C(=O)N[C@@H](CCC(=O)O)C(=O)N[C@@H](CCC(N)=O)C(=O)N[C@@H](C)C(=O)N[C@@H](CCC(=O)O)C(=O)N[C@@H](CCCCN)C(=O)N[C@@H](CC(N)=O)C(=O)NC(C)(C)C(=O)N[C@@H](CCCNC(=N)N)C(=O)N[C@H](C(=O)N[C@@H](CC(C)C)C(=O)N[C@@H](CCC(=O)O)C(=O)N[C@@H](CCCNC(=N)N)C(=O)N[C@H](C(N)=O)C(C)C)[C@@H](C)CC)C(=O)O
B5: SEQ ID NO: 1 (peptide)
peptide: IVLSLDVPIGLK([γGlu-Palmitoyl])QILLEQEKQEKEKQQAETNAQILAQV-NH2
modifications: N-terminus assumed
SMILES: CCCCCCCCCCCCCCCC(=O)N[C@@H](CCC(=O)NCCCC[C@H](NC(=O)[C@H](CC(C)C)NC(=O)CNC(=O)[C@@H](NC(=O)[C@@H]1CCCN1C(=O)[C@@H](NC(=O)[C@H](CC(=O)O)NC(=O)[C@H](CC(C)C)NC(=O)[C@H](CO)NC(=O)[C@H](CC(C)C)NC(=O)[C@@H](NC(=O)[C@@H](N)[C@@H](C)CC)C(C)C)C(C)C)[C@@H](C)CC)C(=O)N[C@@H](CCC(N)=O)C(=O)N[C@H](C(=O)N[C@@H](CC(C)C)C(=O)N[C@@H](CC(C)C)C(=O)N[C@@H](CCC(=O)O)C(=O)N[C@@H](CCC(N)=O)C(=O)N[C@@H](CCC(=O)O)C(=O)N[C@@H](CCCCN)C(=O)N[C@@H](CCC(N)=O)C(=O)N[C@@H](CCC(=O)O)C(=O)N[C@@H](CCCCN)C(=O)N[C@@H](CCC(=O)O)C(=O)N[C@@H](CCCCN)C(=O)N[C@@H](CCC(N)=O)C(=O)N[C@@H](CCC(N)=O)C(=O)N[C@@H](C)C(=O)N[C@@H](CCC(=O)O)C(=O)N[C@H](C(=O)N[C@@H](CC(N)=O)C(=O)N[C@@H](C)C(=O)N[C@@H](CCC(N)=O)C(=O)N[C@H](C(=O)N[C@@H](CC(C)C)C(=O)N[C@@H](C)C(=O)N[C@@H](CCC(N)=O)C(=O)N[C@H](C(N)=O)C(C)C)[C@@H](C)CC)[C@@H](C)O)[C@@H](C)CC)C(=O)O
B6: SEQ ID NO: 33 (peptide)
peptide: IVLSLD[dV]PTKLK([γGlu-Palmitoyl])QKLLKQERQRKEREQAEKNTRILERV-NH2
modifications: N-terminus assumed
SMILES: CCCCCCCCCCCCCCCC(=O)N[C@@H](CCC(=O)NCCCC[C@H](NC(=O)[C@H](CC(C)C)NC(=O)[C@H](CCCCN)NC(=O)[C@@H](NC(=O)[C@@H]1CCCN1C(=O)[C@H](NC(=O)[C@H](CC(=O)O)NC(=O)[C@H](CC(C)C)NC(=O)[C@H](CO)NC(=O)[C@H](CC(C)C)NC(=O)[C@@H](NC(=O)[C@@H](N)[C@@H](C)CC)C(C)C)C(C)C)[C@@H](C)O)C(=O)N[C@@H](CCC(N)=O)C(=O)N[C@@H](CCCCN)C(=O)N[C@@H](CC(C)C)C(=O)N[C@@H](CC(C)C)C(=O)N[C@@H](CCCCN)C(=O)N[C@@H](CCC(N)=O)C(=O)N[C@@H](CCC(=O)O)C(=O)N[C@@H](CCCNC(=N)N)C(=O)N[C@@H](CCC(N)=O)C(=O)N[C@@H](CCCNC(=N)N)C(=O)N[C@@H](CCCCN)C(=O)N[C@@H](CCC(=O)O)C(=O)N[C@@H](CCCNC(=N)N)C(=O)N[C@@H](CCC(=O)O)C(=O)N[C@@H](CCC(N)=O)C(=O)N[C@@H](C)C(=O)N[C@@H](CCC(=O)O)C(=O)N[C@@H](CCCCN)C(=O)N[C@@H](CC(N)=O)C(=O)N[C@H](C(=O)N[C@@H](CCCNC(=N)N)C(=O)N[C@H](C(=O)N[C@@H](CC(C)C)C(=O)N[C@@H](CCC(=O)O)C(=O)N[C@@H](CCCNC(=N)N)C(=O)N[C@H](C(N)=O)C(C)C)[C@@H](C)CC)[C@@H](C)O)C(=O)O

Target: human corticotropin-releasing factor 2α (CRF2 α receptor) (human), Q13324
Assay: cell-based or functional assay

Chain of human corticotropin-releasing factor 2α (CRF2 α receptor) (human), Q13324 (Q13324 20-411): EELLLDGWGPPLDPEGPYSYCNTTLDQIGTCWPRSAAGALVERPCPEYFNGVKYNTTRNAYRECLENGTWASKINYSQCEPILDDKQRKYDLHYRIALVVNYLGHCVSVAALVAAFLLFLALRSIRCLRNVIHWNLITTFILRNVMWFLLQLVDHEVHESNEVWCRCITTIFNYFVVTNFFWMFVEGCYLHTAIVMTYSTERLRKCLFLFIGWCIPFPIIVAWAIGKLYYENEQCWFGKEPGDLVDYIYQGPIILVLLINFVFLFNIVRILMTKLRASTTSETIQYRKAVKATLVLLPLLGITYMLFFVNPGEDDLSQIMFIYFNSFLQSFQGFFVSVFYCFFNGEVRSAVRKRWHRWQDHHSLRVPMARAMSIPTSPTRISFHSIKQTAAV

| EC50 [nM], 0% HSA [nM] | EC50 [nM], 0.1% HSA [nM] | Binder |
| --- | --- | --- |
| 0.16 |  | B1 |
| 0.24 | 3.82 | B2 |
| 6.88 |  | B3 |
| 0.01 |  | B4 |
| 0.01 |  | IVLSLD[dV]PTKLK([γGlu-Palmitoyl])QKLLKQERQRKEREQAEKNVRILERV-NH2 [SEQ ID NO: 32] |
| 0.01 |  | B5 |
| 0.2 |  | B6 |
